Results taken from the supplement of paper PMC9170038.

Test system: MS2 coat protein
Assay: apparent KD of MS2 coat protein; designed switch direction (-1 OFF switch, 1 ON switch): -1; higher = weaker reporter binding
Outline: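 Each step of the titration lasted 0.8–1.5 h at the lowest concentration and 10–20 min at the highest. The protein, SNAP-549-labelled MS2 coat protein, went from 0.7 or 1.5 nM doubling to 3 µM over RNA switches transcribed on Illumina chips by stalled E. coli RNA polymerase. Normalised cluster fluorescence was curve-fitted, and the per-design median over clusters is given as apparent KD.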

[1] = Eterna round: R95, input ligand: FMN 200 uM
[2] = Eterna round: R95, input ligand: microRNA oligo, concentration not stated
[3] = Eterna round: R95, input ligand: none
[4] = input ligand: microRNA oligo, concentration not stated

Row | Sequence | apparent KD of MS2 coat protein [1] | apparent KD of MS2 coat protein [2] | apparent KD of MS2 coat protein [3] | apparent KD of MS2 coat protein (input ligand: FMN 200 uM) | apparent KD of MS2 coat protein (input ligand: none) | apparent KD of MS2 coat protein [4]
1 | GCAUGGCGAGGAUAUACAUGAGGAUCACCCAUGUGAGAAUAAGAAGUGAGGAAGAAAAGUAGAAGGCGCUGUGG [Mat - Exclusion 3 - Mod of Salish D65] (puzzle: Exclusion 3) | 173 nM | 73.8 nM | 84.5 nM |  |  | 
2 | GCAUGUCUUAAGGAUAUGCUUAGGCGUGAGCCGGCAGAAGGUAAGACAUGAGGAUCACCCAUGUUUUCCUAAAA [jl-ex6-4.31 ViennaUCT mod] (Eterna round: R97, puzzle: Exclusion 6) |  |  |  | 171 nM | 24.4 nM | 
3 | GCCAACGACUGAGGAUAUGCUUAUAGACAUGAGGAUCACCCAUGUAAAUGGGACAUGUCAAACCAGCAGAAGGCAGGACCUGGC [Inteinrais] (Eterna round: R96, puzzle: Exclusion NG 2) |  |  |  | 100 nM | 70.3 nM | 57.5 nM
4 | GCCACAGCAGGAUAUUCAAUAAUUCACAUGAGGAUCACCCAUGUCGAGCGAAAGCUCGAGGGAGAAGGGCUGUGGC [Mat - Exclusion 5 - Eli mod - D88] (puzzle: Exclusion 5) |  | 34.4 nM |  |  |  | 
5 | GCCACGGGAGGAUAUACAUAGGAGUUCUCUUCCUGCUCGAGACAUGAGGAUCACCCAUGUAGAAGGCCCGCUGC [Eternabot (L2) Solution 17] (Eterna round: R97, puzzle: Exclusion 2) |  |  |  | 62.2 nM | 385 nM | 
6 | GCCACGGGAGGAUAUCGCGGAGGCUACAUGAGGAUCACCCAUGUCUGGUCUUCGUGCUCCCGAGAAGGCCCGUCAG [Bivemaus] (puzzle: Exclusion 5) |  | 13.2 nM |  |  |  | 
7 | GCCAGAGCAGGAUAUCUAAUAUAUCACAUGAGGAUCACCCAUGUCCAGCGAAAGCUGGAGGGAGAAGGGCUCUGGC [Fiskers Ex 5 - 19] (puzzle: Exclusion 5) | 53.6 nM | 98.4 nM | 106 nM |  |  | 
8 | GCCAGAGCAGGAUAUCUAAUGUAUCACAUGAGGAUCACCCAUGUCCAGCGAAAGCUGGAGGGAGAAGGGCUCUGGC [Fiskers Ex 5 - 20] (puzzle: Exclusion 5) | 49.9 nM | 105 nM | 106 nM |  |  | 
9 | GCCAGAGCAGGAUAUUCAAUAAUCCACAUGAGGAUCACCCAUGUCUAGCGAAAGCUAGAGGGAGAAGGGCUCUGGC [Mat - Exclusion 5 - Eli mod - D90] (puzzle: Exclusion 5) |  | 57.2 nM |  |  |  | 
10 | GCCAGAGCAGGAUAUUCAAUAAUUCACAUGAGGAUCACCCAUGUCCAGCGAAAGCUAGGAGGAGAAGGGCUCUGGC [Fiskers Ex 5 - 4] (puzzle: Exclusion 5) | 15.2 nM | 17.2 nM | 17.8 nM |  |  | 
11 | GCCAGAGCAGGAUAUUCAAUAUAUCACAUGAGGAUCACCCAUGUCCAGCGAAAGCUGGAGGGAGAAGGGCUCUGGC [Fiskers Ex 5 - 16] (puzzle: Exclusion 5) | 99.5 nM | 416 nM | 390 nM |  |  | 
12 | GCCAGUGCAGGAUAUUCAAUAAUUCACAUGAGGAUCACCCAUGUCCAGCGAAAGCUGGAAGGAGAAGGGCACUGGC [Mat - Exclusion 5 - Eli mod - D85] (puzzle: Exclusion 5) | 10.2 nM | 12.8 nM | 14.6 nM |  |  | 
13 | GCCCGUGCGGAGGAUAUUGAUAUCCCAGUCUAUCAAGAAGGCUGCACAUGAGGAUCACCCAUGUGACCUGUGCU [Retiqule] (puzzle: Exclusion 6) |  | 15.8 nM |  |  |  | 
14 | GCCCGUGGGCAAGGAUAUCCUACGCUGUUCUGGUUCGUGUCUGUCACAUGAGGAUCACCCAUGUGGGAGAAGGUGCACCAGGGU [Design 52] (Eterna round: R96, puzzle: Exclusion NG 2) |  |  |  | 13.5 nM | 14.4 nM | 10.7 nM
15 | GCCCGUGGGCAAGGAUAUCCUACGCUGUUCUGGUUCGUGUCUGUCACAUGAGGAUCACCCAUGUGGGAGAAGGUGCACUAGGGU [Design 53] (Eterna round: R96, puzzle: Exclusion NG 2) |  |  |  | 19.7 nM | 16.9 nM | 11.1 nM
16 | GCCCGUGGGCAAGGAUAUCCUACGCUGUUCUGGUUCGUGUCUGUCACAUGAGGAUCACCCAUGUGGGAGAAGGUGCAUUUGGGU [Design 55] (Eterna round: R96, puzzle: Exclusion NG 2) |  |  |  | 14.1 nM | 17.3 nM | 11.1 nM

Row | Sequence | apparent KD of MS2 coat protein [1] | apparent KD of MS2 coat protein [2] | apparent KD of MS2 coat protein [3] | apparent KD of MS2 coat protein (input ligand: FMN 200 uM) | apparent KD of MS2 coat protein (input ligand: none) | apparent KD of MS2 coat protein [4]
17 | GCCGAAAAUGUGAGGAUAUACCUAUGGAUACAUAGGUAGAAGGCACAUGAGGAUCACCCAUGUGUCCAAACGGC [Eli bmx4 4.22] (Eterna round: R97, puzzle: Brourd's mod of Exclusion 4) |  |  |  | 58.2 nM | 14.5 nM | 
18 | GCCGAAAGCGUAGGAUAUCGAAUAAAGCGGAAACGCAAGACAUGAGGAUCACCCAUGUGUCCGGACGAGAAGGGCGAAAGCGGC [EXNG2 V2 a] (Eterna round: R96, puzzle: Exclusion NG 2) |  |  |  | 33.4 nM | 34.3 nM | 27.1 nM
19 | GCCGAUUAAGUCAGGAUAUACCUAUGGAUACAUAGGUAGAAGGGACAUGAGGAUCACCCAUGUUCCUCAUCGGC [Fiskers BMX 4 - 12] (puzzle: Brourd's mod of Exclusion 4) | 41.6 nM | 13.5 nM | 16.9 nM |  |  | 
20 | GCCGCGCGAGGAUAUACAUGAGGAUCACCCAUGUGAAAUUAUAGUGAGGAAAUGAAAAGUAGAAGGCGCGCGGA [Mod of Mat 19 - Jieux - Exclusion 3] (Eterna round: R97, puzzle: Exclusion 3) |  |  |  | 258 nM | 37 nM | 
21 | GCCGUCGUUGUGAGGAUAUGCCUAUGGAUACGUAGGCAGAAGGCACAUGAGGAUCACCCAUGUCCAAAGACGGC [JL-BMX4-4.28 Eli mod] (Eterna round: R97, puzzle: Brourd's mod of Exclusion 4) |  |  |  | 1000 nM | 101 nM | 
22 | GCCGUUGAAGGAUAUGCUGAACUUGAGGUGCGUCCAUCCACACAUGAGGAUCACCCAUGUAGAAGGUCAACGGA [Eternabot (L2) Solution 67] (Eterna round: R97, puzzle: Exclusion 2) |  |  |  | 456 nM | 287 nM | 
23 | GCCUAACAUGAGGAUCACCCAUGUAAGGAUAUGAUUAGUCGUUUGUAAGCAGCGCGACUCAGAAGGUACUUGGG [Eternabot (L1) Solution 34] (Eterna round: R97, puzzle: Exclusion 1) |  |  |  | 72 nM | 25.4 nM | 
24 | GCCUCACUUGAGGAUCACCCAAGUCAGGAUAUAUCACUAGCGUGGAAACCACGCUGGCAUAGAAGGGACAAAGA [Ergeeddi] (Eterna round: R97, puzzle: Exclusion 1) |  |  |  | 27.1 nM | 17.3 nM | 
25 | GCCUCUCAUGUGAGGAUAUCCGGACUAUACAGACAGGAGAAGGCACAUGAGGAUCACCCAUGUCACGCACACUU [BmEX4 B.5] (Eterna round: R97, puzzle: Brourd's mod of Exclusion 4) |  |  |  | 27.1 nM | 189 nM | 
26 | GCCUGCUGGCGAGGAUAUUCUGUGCGGUUCCGGCUCGUGUCUGUUACAUGAGGAUCACCCAUGUGGGAGAAGGUGUCUGUGGCC [Design 100] (Eterna round: R96, puzzle: Exclusion NG 2) |  |  |  | 12.5 nM | 14.7 nM | 10.1 nM
27 | GCCUGUAGUGUGAGGAUAUGCUGCUCCAUAGAGCAGCAGAAGGCACAUGAGGAUCACCCAUGUGAUAACAGGCA (Eterna round: R97, puzzle: Brourd's mod of Exclusion 4) |  |  |  | 443 nM | 151 nM | 
28 | GCCUUAUCCGUCAGGAUAUACAGCCGCUCCCUGUUGUAGAAGGGACAUGAGGAUCACCCAUGUACGUACCAUUG [alecazam6] (Eterna round: R97, puzzle: Brourd's mod of Exclusion 4) |  |  |  | 31.8 nM | 39.1 nM | 
29 | GCGAGAUGAGGAUAUUAGUGGAAUGACAUGAGGAUCACCCAUGUUACGCAUGUCGAGCUUUGAGAAGGCAUUACGA [Eternabot (L2) Solution 75] (Eterna round: R97, puzzle: Exclusion 5) |  |  |  | 26.2 nM | 31.3 nM | 
30 | GCGAGGUUAGGAUAUGCUGGCGUGGACUUGAGGAUCACCCAAGUGACUGCGGGCUAGGGCGCAGAAGGGACAAAAU [Usti] (Eterna round: R97, puzzle: Exclusion 5) |  |  |  | 45.1 nM | 45.6 nM | 
31 | GCGCACCUACCAAAAGGUAGGACAACAUGAGGAUCACCCAUGUAGGAUAUCGAUUGCUUUGCAGUCGAGAAGGACAUGAUGCGC [JL ENG3 3.80 Mod 7] (Eterna round: R96, puzzle: Exclusion NG 3) |  |  |  | 111 nM | 34.7 nM | 25.9 nM
